# Paper PMC10615991
# Biological target: Recombinant angiotensin-converting enzyme-2 (ACE2) (UniProt Q9BYF1)
# Experiment: LSPR (localized surface plasmon resonance)
# Sequence of Recombinant angiotensin-converting enzyme-2 (ACE2) (Q9BYF1 18-805): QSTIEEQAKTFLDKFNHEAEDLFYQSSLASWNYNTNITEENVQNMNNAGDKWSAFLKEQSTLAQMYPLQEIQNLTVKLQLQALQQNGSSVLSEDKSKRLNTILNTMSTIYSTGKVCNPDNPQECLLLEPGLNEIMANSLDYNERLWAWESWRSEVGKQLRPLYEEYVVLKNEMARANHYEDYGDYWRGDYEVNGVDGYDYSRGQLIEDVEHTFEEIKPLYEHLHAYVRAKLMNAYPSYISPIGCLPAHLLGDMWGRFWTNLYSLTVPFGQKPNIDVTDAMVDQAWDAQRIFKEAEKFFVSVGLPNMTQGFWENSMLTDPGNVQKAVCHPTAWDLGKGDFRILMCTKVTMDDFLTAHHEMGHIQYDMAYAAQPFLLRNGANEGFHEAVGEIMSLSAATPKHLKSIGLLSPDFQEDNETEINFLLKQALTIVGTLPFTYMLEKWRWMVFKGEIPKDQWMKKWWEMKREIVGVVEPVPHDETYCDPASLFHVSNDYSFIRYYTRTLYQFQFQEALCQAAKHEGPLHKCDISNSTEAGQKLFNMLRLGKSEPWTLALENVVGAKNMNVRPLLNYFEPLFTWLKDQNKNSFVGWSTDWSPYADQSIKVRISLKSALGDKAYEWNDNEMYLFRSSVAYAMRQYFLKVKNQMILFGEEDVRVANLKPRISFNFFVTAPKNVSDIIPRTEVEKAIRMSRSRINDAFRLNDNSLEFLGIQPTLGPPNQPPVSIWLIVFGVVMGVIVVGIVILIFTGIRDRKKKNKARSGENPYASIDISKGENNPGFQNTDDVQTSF
substance,measurement,value
SARS-CoV S1 protein (from UniProt P59594 14-667) (domain or fragment),LOD,0.01 ng/mL
same,"fold wavelength shift on Au@R/Li against Au@R, at 100 ng/ml",1.78 fold
same,"fold wavelength shift on Au@R/Li against Au@R, at 1000 ng/ml",4.51 fold
same,"fold wavelength shift on Au@R/Li against Au@R, at 10,000 ng/ml",1.95 fold
